Data on seven molecules can be found in patent US20180155451A1 (published 2018).

For test [1], the target named is T1, FcγRIIIa extracellular domain with C-terminal His tag (human, UniProt P08637 17-208).
T1 construct: extracellular domain; also called FcgRIIIa; 3a; not shown: His tag attached to the C terminus
Kind of test: SPR (Biacore); relative FcγRIIIa binding divided by relative FcγRIIb binding of the same antibody. As to the method: (§1) Analysis of interaction between objective antibody and the FcγR was carried out using Biacore T100 (GE Healthcare). HBS-EP+ (GE Healthcare) was used as the running buffer, and the measurement temperature was set to 25° C. Chips produced by immobilizing the antigen peptide by the amine coupling method to a Series S Sencor Chip CM5 (GE Healthcare), or alternatively, chips produced by allowing preliminarily biotinylated antigen peptides to interact with and immobilize onto a Series S Sensor Chip SA (certified) (GE Healthcare) were used. Antibodies of interest were captured onto an antigen peptide-immobilized chip, and allowed to interact to each FcγR diluted with running buffer. To regenerate and repeatedly use the chip, the antibodies captured on the chip were washed off by reacting 10 mM glycine-HCl, pH 1.5.
(§2) The FcγR-binding activity of each antibody was assessed primarily using as an indicator the FcγR-binding activity and dissociation constant for FcγR.

Test [2] addresses T2, FcγRIIb extracellular domain with C-terminal His tag (human, UniProt P31994 43-217).
T2 construct: extracellular domain; Expressed in FreeStyle293 cells and used as the analyte in Biacore; also called FcgRIIb; 2b; not shown: His tag attached to the C terminus
T2 sequence (looked up): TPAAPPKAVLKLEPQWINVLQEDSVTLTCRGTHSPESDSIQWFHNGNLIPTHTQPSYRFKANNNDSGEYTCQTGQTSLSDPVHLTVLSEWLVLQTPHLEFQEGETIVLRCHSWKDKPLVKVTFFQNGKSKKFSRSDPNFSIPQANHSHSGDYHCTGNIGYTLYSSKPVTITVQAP
In words: SPR (Biacore), antibody captured on antigen peptide chip, FcγR as analyte; bound amount against control heterodimerized antibody. As to the method:
as §1, §2
(In general: In SPR one partner is held on a chip, and binding of the other changes the refractive index at the surface.)

Test [3] has as its target T1, FcγRIIIa extracellular domain with …. The test is described as above. As to the method:
as §1, §2

T1 sequence (P08637 17-208): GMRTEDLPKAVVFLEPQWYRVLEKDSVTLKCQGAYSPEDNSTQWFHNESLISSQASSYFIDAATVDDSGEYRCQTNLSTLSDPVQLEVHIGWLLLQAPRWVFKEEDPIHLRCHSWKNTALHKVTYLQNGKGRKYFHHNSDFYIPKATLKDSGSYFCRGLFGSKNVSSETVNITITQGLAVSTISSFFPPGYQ

B1: GpH7-A5/GpH7-B3 variant H268_05P/GpL16-k0 (He Ab) (antibody, human IgG1, kappa)
heavy 1: not shown
heavy 2: not shown
light: DIVMTQSPLSLPVTPGEPASISCQASESLVHSNRNTYLHWYLQKPGQSPQLLIYKVSNRFSGVPDRFSGSGSGTDFTLKISRVEAEDVGVYYCSQNTHVPPTFGQGTKVEIERTVAAPSVFIFPPSDEQLKSGTASVVCLLNNFYPREAKVQWKVDNALQSGNSQESVTEQDSKDSTYSLSSTLTLSKADYEKHKVYACEVTHQGLSSPVTKSFNRGEC
notes: Anti-glypican-3 heterodimerized IgG1 antibody; the mutation stands in only one H chain (the GpH7-B3 chain); also called H268P in one H chain
Turning to B1, the “He_3a/2b (IIIa/IIb)” value in test [1] was 0.66 ratio of He/Con_3a to He/Con_2b. In addition, the “He/Con_2b (IIb binding)” value in test [2] is 116 relative binding activity, GpH7-A5/GpH7-B3/GpL16-k0 = 100. The “He/Con_3a (IIIa binding)” value in test [3] is 76.4 relative binding activity, GpH7-A5/GpH7-B3/GpL16-k0 = 100.

B2: GpH7-A5/GpH7-B3 variant H268_18N/GpL16-k0 (He Ab) (antibody, human IgG1, kappa)
heavy 1: not shown
heavy 2: not shown
light: DIVMTQSPLSLPVTPGEPASISCQASESLVHSNRNTYLHWYLQKPGQSPQLLIYKVSNRFSGVPDRFSGSGSGTDFTLKISRVEAEDVGVYYCSQNTHVPPTFGQGTKVEIERTVAAPSVFIFPPSDEQLKSGTASVVCLLNNFYPREAKVQWKVDNALQSGNSQESVTEQDSKDSTYSLSSTLTLSKADYEKHKVYACEVTHQGLSSPVTKSFNRGEC
notes: Anti-glypican-3 heterodimerized IgG1 antibody; the mutation stands in only one H chain (the GpH7-B3 chain); also called H268N in one H chain
As for B2, the “He_3a/2b (IIIa/IIb)” value in test [1] was 0.67 ratio of He/Con_3a to He/Con_2b. Moreover, the “He/Con_2b (IIb binding)” value in test [2] was 156 relative binding activity, GpH7-A5/GpH7-B3/GpL16-k0 = 100. Moreover, the “He/Con_3a (IIIa binding)” value in test [3] was 104 relative binding activity, GpH7-A5/GpH7-B3/GpL16-k0 = 100.

B3: GpH7-A5/GpH7-B3 variant P271_08L/GpL16-k0 (He Ab) (antibody, human IgG1, kappa)
heavy 1: not shown
heavy 2: not shown
light: DIVMTQSPLSLPVTPGEPASISCQASESLVHSNRNTYLHWYLQKPGQSPQLLIYKVSNRFSGVPDRFSGSGSGTDFTLKISRVEAEDVGVYYCSQNTHVPPTFGQGTKVEIERTVAAPSVFIFPPSDEQLKSGTASVVCLLNNFYPREAKVQWKVDNALQSGNSQESVTEQDSKDSTYSLSSTLTLSKADYEKHKVYACEVTHQGLSSPVTKSFNRGEC
notes: Anti-glypican-3 heterodimerized IgG1 antibody; the mutation stands in only one H chain (the GpH7-B3 chain); also called P271L in one H chain
For the molecule B3, the “He_3a/2b (IIIa/IIb)” value in test [1] was 0.69 ratio of He/Con_3a to He/Con_2b. Further, in test [2], the “He/Con_2b (IIb binding)” value was 103 relative binding activity, GpH7-A5/GpH7-B3/GpL16-k0 = 100. For the same molecule, in test [3], the “He/Con_3a (IIIa binding)” value is 71 relative binding activity, GpH7-A5/GpH7-B3/GpL16-k0 = 100.

B4: GpH7-A5/GpH7-B3 variant H268_20W/GpL16-k0 (He Ab) (antibody, human IgG1, kappa)
heavy 1: not shown
heavy 2: not shown
light: DIVMTQSPLSLPVTPGEPASISCQASESLVHSNRNTYLHWYLQKPGQSPQLLIYKVSNRFSGVPDRFSGSGSGTDFTLKISRVEAEDVGVYYCSQNTHVPPTFGQGTKVEIERTVAAPSVFIFPPSDEQLKSGTASVVCLLNNFYPREAKVQWKVDNALQSGNSQESVTEQDSKDSTYSLSSTLTLSKADYEKHKVYACEVTHQGLSSPVTKSFNRGEC
notes: Anti-glypican-3 heterodimerized IgG1 antibody; the mutation stands in only one H chain (the GpH7-B3 chain); also called H268W in one H chain
Turning to B4, the “He_3a/2b (IIIa/IIb)” value in test [1] is 0.74 ratio of He/Con_3a to He/Con_2b. Moreover, the “He/Con_2b (IIb binding)” value in test [2] was 111 relative binding activity, GpH7-A5/GpH7-B3/GpL16-k0 = 100. For the same molecule, the “He/Con_3a (IIIa binding)” value in test [3] was 82.8 relative binding activity, GpH7-A5/GpH7-B3/GpL16-k0 = 100.

B5: GpH7-A5/GpH7-B3 variant S267_14T/GpL16-k0 (He Ab) (antibody, human IgG1, kappa)
heavy 1: not shown
heavy 2: not shown
light: DIVMTQSPLSLPVTPGEPASISCQASESLVHSNRNTYLHWYLQKPGQSPQLLIYKVSNRFSGVPDRFSGSGSGTDFTLKISRVEAEDVGVYYCSQNTHVPPTFGQGTKVEIERTVAAPSVFIFPPSDEQLKSGTASVVCLLNNFYPREAKVQWKVDNALQSGNSQESVTEQDSKDSTYSLSSTLTLSKADYEKHKVYACEVTHQGLSSPVTKSFNRGEC
notes: Anti-glypican-3 heterodimerized IgG1 antibody; the mutation stands in only one H chain (the GpH7-B3 chain); also called S267T in one H chain
On to B5, for which, in test [1], the “He_3a/2b (IIIa/IIb)” value was 0.44 ratio of He/Con_3a to He/Con_2b. Moreover, the “He/Con_2b (IIb binding)” value in test [2] was 104 relative binding activity, GpH7-A5/GpH7-B3/GpL16-k0 = 100. Moreover, in test [3], the “He/Con_3a (IIIa binding)” value is 45.6 relative binding activity, GpH7-A5/GpH7-B3/GpL16-k0 = 100.

B6: GpH7-A5/GpH7-B3 variant P271_01G/GpL16-k0 (He Ab) (antibody, human IgG1, kappa)
heavy 1: not shown
heavy 2: not shown
light: DIVMTQSPLSLPVTPGEPASISCQASESLVHSNRNTYLHWYLQKPGQSPQLLIYKVSNRFSGVPDRFSGSGSGTDFTLKISRVEAEDVGVYYCSQNTHVPPTFGQGTKVEIERTVAAPSVFIFPPSDEQLKSGTASVVCLLNNFYPREAKVQWKVDNALQSGNSQESVTEQDSKDSTYSLSSTLTLSKADYEKHKVYACEVTHQGLSSPVTKSFNRGEC
notes: Anti-glypican-3 heterodimerized IgG1 antibody; the mutation stands in only one H chain (the GpH7-B3 chain); also called P271G in one H chain
For the molecule B6, the “He_3a/2b (IIIa/IIb)” value in test [1] is 0.59 ratio of He/Con_3a to He/Con_2b. Besides, in test [2], the “He/Con_2b (IIb binding)” value was 193 relative binding activity, GpH7-A5/GpH7-B3/GpL16-k0 = 100. In test [3], the “He/Con_3a (IIIa binding)” value was 113 relative binding activity, GpH7-A5/GpH7-B3/GpL16-k0 = 100.

B7: GpH7-A5/GpH7-B3 variant H268_13S/GpL16-k0 (He Ab) (antibody, human IgG1, kappa)
heavy 1: not shown
heavy 2: not shown
light: DIVMTQSPLSLPVTPGEPASISCQASESLVHSNRNTYLHWYLQKPGQSPQLLIYKVSNRFSGVPDRFSGSGSGTDFTLKISRVEAEDVGVYYCSQNTHVPPTFGQGTKVEIERTVAAPSVFIFPPSDEQLKSGTASVVCLLNNFYPREAKVQWKVDNALQSGNSQESVTEQDSKDSTYSLSSTLTLSKADYEKHKVYACEVTHQGLSSPVTKSFNRGEC
notes: Anti-glypican-3 heterodimerized IgG1 antibody; the mutation stands in only one H chain (the GpH7-B3 chain); also called H268S in one H chain
As to B7, the “He_3a/2b (IIIa/IIb)” value in test [1] is 0.76 ratio of He/Con_3a to He/Con_2b. Also, in test [2], the “He/Con_2b (IIb binding)” value was 160 relative binding activity, GpH7-A5/GpH7-B3/GpL16-k0 = 100. In test [3], the “He/Con_3a (IIIa binding)” value is 122 relative binding activity, GpH7-A5/GpH7-B3/GpL16-k0 = 100.
